Assay [1] concerns the target T1, PD-L1 antigen (ELISA of Example 2) (human, UniProt Q9NZQ7 19-239, limits assumed). Kind of assay: ELISA, signal on PD-L1 antigen over control.
Assay [2] concerns the target T1, PD-L1 antigen (ELISA of Example 2). The assay can be described thus: ELISA, signal on PD-L1 antigen. A general note: An ELISA detects its analyte on a solid surface through an enzyme-linked reagent.

Where a chain is given by its changes, count along the chain named.

T1 sequence (Q9NZQ7 19-239 limits assumed): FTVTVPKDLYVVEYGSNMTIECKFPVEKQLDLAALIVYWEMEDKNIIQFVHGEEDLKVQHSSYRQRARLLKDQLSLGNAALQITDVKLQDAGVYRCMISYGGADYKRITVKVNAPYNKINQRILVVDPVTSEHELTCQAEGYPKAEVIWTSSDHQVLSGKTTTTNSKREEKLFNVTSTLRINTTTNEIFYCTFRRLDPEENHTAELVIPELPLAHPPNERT

B1: 3LIG7 (VHH)
VHH: QVQLQESGGGLVQAGGSLRLSCAASGFTFSSYGMSWVRQTPGKGPEWVSAIDSGGGSTSYADSVKGRFTISRDNAKNTLYLQMNSLKPEDTAVYYCAQGYYCSGYGCSDYWGQGTQVTVSS
notes: PD-L1 VHH
Molecule B1 showed an A/control in assay [1] of 37.6. In assay [2], this molecule returned an ELISA of 3.64.

B2: 2LIG109 (VHH)
VHH: B1 VHH with A14S, A23K, A24T
notes: PD-L1 VHH
B2 registered an A/control in assay [1] of 32.6. Moreover, the ELISA in assay [2] came to 3.55.

B3: 2LIG29 (VHH)
VHH: B1 VHH with A14T
notes: PD-L1 VHH
Consider B3, for which the A/control in assay [1] was determined as 34.6. Further, in assay [2], the ELISA was determined as 3.77.

B4: 2LIG35 (VHH)
VHH: B1 VHH with A14P, I70T
notes: PD-L1 VHH
As for B4, the A/control in assay [1] was determined as 8.18. The molecule further yielded an ELISA in assay [2] of 0.844.

B5: 2LIG48 (VHH)
VHH: QVQLQESGGGLVQPGGSLRLSCAASGFTFNDYAMSWVRQAPGKGLEWVSGIRSNGGYTNYADSVKGRFTISRDNAKNTLYLQMNSLKSEDTAVYYCAQGYYCSGYGCYPGQGTQVTVSS
notes: PD-L1 VHH
As for B5, in assay [1], the A/control worked out at 33.2. Further, the ELISA in assay [2] was found to be 4.

B6: 3LIG30 (VHH)
VHH: B5 VHH with L11T, P14A
notes: PD-L1 VHH
Consider B6, for which, in assay [1], the A/control came out at 47.3. The molecule also returned an ELISA in assay [2] of 4.

B7: 2LIG16 (VHH)
VHH: B5 VHH with N30D, A33G, G50A, S53W, Y57S, Y108P, P109R
notes: PD-L1 VHH
On to B7, for which the A/control in assay [1] was 26.4. In assay [2], this molecule gave an ELISA of 3.02.

B8: 2LIG2 (VHH)
VHH: QVQLQESGGGLVQAGGSLRLSCAASGFTLDYYAIGWFRQAPGKEREEVSCISSSDGSTYYADSVKGRFTISRDNAKNTVNLQMNSLKPEDTAVYYCATDGWSSCRHGINEYLYWGQGTQVTVSS
notes: PD-L1 VHH
B8 displayed an A/control in assay [1] of 3.86. Moreover, in assay [2], the ELISA turned out to be 0.51.

B9: 2LIG22 (VHH)
VHH: QVQLQESGGGLVQPGGSLRLSCAASGFTLDYYAINWFRQAPGKEREEVSCISSSDGSTYYADSVKGRFTISRDNAKNTVYLQMNSLKPEDTAVYYCATSGWRLCRPTDEYDYSYWGQGTQVTVSS
notes: PD-L1 VHH
In assay [1], B9 came in with an A/control of 4.55. For the same molecule, in assay [2], the ELISA worked out at 0.469.

B10: 3LIG28 (VHH)
VHH: B9 VHH with S113L
notes: PD-L1 VHH
As to B10, the A/control in assay [1] stood at 33.2. In assay [2], this molecule displayed an ELISA of 3.03.

B11: 2LIG27 (VHH)
VHH: QVQLQESGGGVVQAGGSLRLSCTASGTIFSINRMDWFRQAPGKQRELVALITSDGTPTYADSAKGRFTISRDNTKKTVSLQMNSLKPEDTAVYYCHVSSGVYNYWGQGTQVTVSS
notes: PD-L1 VHH
As for B11, in assay [1], the A/control came to 3.78. The molecule also gave an ELISA in assay [2] of 0.429.

B12: 2LIG97 (VHH)
VHH: B11 VHH with V11L, G16E
notes: PD-L1 VHH
As for B12, the A/control in assay [1] stood at 5.13. The molecule further returned an ELISA in assay [2] of 1.03.

B13: 2LIG3 (VHH)
VHH: B11 VHH with V11L, R33H, T56F
notes: PD-L1 VHH
In turn, B13 gave an A/control in assay [1] of 9.75. For the same molecule, in assay [2], the ELISA amounted to 1.46.

B14: 2LIG34 (VHH)
VHH: B11 VHH with V11S
notes: PD-L1 VHH
As to B14, the A/control in assay [1] was determined as 3.59. Moreover, the ELISA in assay [2] was found to be 0.568.

B15: 3LIG8 (VHH)
VHH: B11 VHH with V11L, A14P
notes: PD-L1 VHH
In assay [1], B15 yielded an A/control of 4.39. The molecule further displayed an ELISA in assay [2] of 0.429.

B16: 2LIG99 (VHH)
VHH: B11 VHH with V11L, T58A
notes: PD-L1 VHH
The molecule B16 gave an A/control in assay [1] of 9.16. For the same molecule, in assay [2], the ELISA is 2.11.

These data come from US20250361305A1 (ORIONIS BIOSCIENCES, published 2025).
